The target of the test is T1, Ribonuclease A (scrambled, oxidized) (Bos taurus, UniProt P61823).
T1 chain: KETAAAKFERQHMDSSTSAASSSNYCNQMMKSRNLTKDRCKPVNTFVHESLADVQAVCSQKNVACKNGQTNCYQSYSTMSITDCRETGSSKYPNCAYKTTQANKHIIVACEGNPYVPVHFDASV
Put plainly: intrinsic fluorescence quenching.

B1: MET 25-932 (protein)
chain: ECKEALAKSEMNVNMKYQLPNFTAETPIQNVILHEHHIFLGATNYIYVLNEEDLQKVAEYKTGPVLEHPDCFPCQDCSSKANLSGGVWKDNINMALVVDTYYDDQLISCGSVNRGTCQRHVFPHNHTADIQSEVHCIFSPQIEEPSQCPDCVVSALGAKVLSSVKDRFINFFVGNTINSSYFPDHPLHSISVRRLKETKDGFMFLTDQSYIDVLPEFRDSYPIKYVHAFESNNFIYFLTVQRETLDAQTFHTRIIRFCSINSGLHSYMEMPLECILTEKRKKRSTKKEVFNILQAAYVSKPGAQLARQIGASLNDDILFGVFAQSKPDSAEPMDRSAMCAFPIKYVNDFFNKIVNKNNVRCLQHFYGPNHEHCFNRTLLRNSSGCEARRDEYRTEFTTALQRVDLFMGQFSEVLLTSISTFIKGDLTIANLGTSEGRFMQVVVSRSGPSTPHVNFLLDSHPVSPEVIVEHTLNQNGYTLVITGKKITKIPLNGLGCRHFQSCSQCLSAPPFVQCGWCHDKCVRSEECLSGTWTQQICLPAIYKVFPNSAPLEGGTRLTICGWDFGFRRNNKFDLKKTRVLLGNESCTLTLSESTMNTLKCTVGPAMNKHFNMSIIISNGHGTTQYSTFSYVDPVITSISPKYGPMAGGTLLTLTGNYLNSGNSRHISIGGKTCTLKSVSNSILECYTPAQTISTEFAVKLKIDLANRETSIFSYREDPIVYEIHPTKSFISGGSTITGVGKNLNSVSVPRMVINVHEAGRNFTVACQHRSNSEIICCTTPSLQQLNLQLPLKTKAFFMLDGILSKYFDLIYVHNPVFKPFEKPVMISMGNENVLEIKGNDIDPEAVKGEVLKVGNKSCENIHLHSEAVLCTVPNDLLKLNSELNIEWKQAISSTVLGKVIVQPDQNFT
modifications: scrambled disulfides of RNase A
B1 showed a Kd of about 300 nM.

Broadly, the Kd is the constant that tells how readily two partners part at equilibrium.

For the origin of these results see publication PMC9604360 (2022).
